Assay results taken from paper PMC4937518.

Molecular target: GAPDH (human (endogenous in U2OS)) (UniProt P04406)
Test: cross-linking; titration of formaldehyde on intact adherent U2OS cells, quenched with Tris, extracted in SDS denaturing buffer, immunoblot of total cell lysates; 6% formaldehyde optimal

GAPDH, P04406 1-335 (enzyme; other documents disagree on this pair), sequence (P04406 whole entry): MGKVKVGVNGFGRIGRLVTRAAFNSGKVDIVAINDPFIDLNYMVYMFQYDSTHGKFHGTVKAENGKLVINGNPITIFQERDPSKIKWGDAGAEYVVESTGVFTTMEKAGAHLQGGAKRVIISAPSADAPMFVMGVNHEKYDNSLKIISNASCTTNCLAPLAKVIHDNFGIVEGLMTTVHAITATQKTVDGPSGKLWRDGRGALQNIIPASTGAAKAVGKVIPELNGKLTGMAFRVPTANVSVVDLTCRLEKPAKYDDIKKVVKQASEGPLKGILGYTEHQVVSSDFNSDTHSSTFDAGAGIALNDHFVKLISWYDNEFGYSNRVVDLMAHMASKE

stoichiometry N: 4
Substance: GAPDH, P04406 1-335 (enzyme; other documents disagree on this pair)
